“And” between values parts separate entries of the source, which are not always exact repeats. Equal entries are not always repeated. Where two headings read alike, the source gives them in different places.
Columns and labels:
[1] = biological target: purified recombinant HA protein of H7N7 (A/England/268/96) (Influenza A virus A/England/268/96 (H7N7))
[2] = biological target: purified recombinant HA protein of H3N2 (A/Brisbane/10/07) (Influenza A virus A/Brisbane/10/07 (H3N2))
[3] = biological target: purified recombinant HA protein of H3N2 (A/Wisconsin/67/05) (Influenza A virus A/Wisconsin/67/05 (H3N2))
[4] = biological target: purified recombinant HA protein of H1N1 (A/Ohio/07/09) (Influenza A virus A/Ohio/07/09 (H1N1))
[5] = biological target: purified recombinant HA protein of H1N1 (A/Texas/05/09) (Influenza A virus A/Texas/05/09 (H1N1))
[6] = biological target: purified recombinant HA protein of H3N2 (A/Philippines/2/82) (Influenza A virus A/Philippines/2/82 (H3N2))
[7] = biological target: purified recombinant HA protein of H1N1 (A/Ohio/07/09) (Influenza A virus A/Ohio/07/09 (H1N1)); experiment: SPR, Biacore T200, HA captured via anti-6x his tag antibody, 25 C
[8] = biological target: purified recombinant HA protein of H1N1 (A/Texas/05/09) (Influenza A virus A/Texas/05/09 (H1N1)); experiment: as above
[9] = biological target: purified recombinant HA protein of H7N9 (A/Shanghai/1/2013) (Influenza A virus A/Shanghai/1/2013 (H7N9)); experiment: as above
[10] = biological target: purified recombinant HA protein of H5N1 (A/Vietnam/1203/04) (Influenza A virus A/Vietnam/1203/04 (H5N1)); experiment: as above
[11] = biological target: purified recombinant HA protein of H3N2 (A/Brisbane/10/07) (Influenza A virus A/Brisbane/10/07 (H3N2)); experiment: as above
[12] = biological target: purified recombinant HA protein of H3N2 (A/Philippines/2/82) (Influenza A virus A/Philippines/2/82 (H3N2)); experiment: as above
[13] = biological target: purified recombinant HA protein of H7N9 (A/Anhui/1/2013) (Influenza A virus A/Anhui/1/2013 (H7N9)); experiment: as above
[14] = biological target: purified recombinant HA protein of H3N2 (A/Wisconsin/67/05) (Influenza A virus A/Wisconsin/67/05 (H3N2)); experiment: as above
[15] = biological target: purified recombinant HA protein of H7N7 (A/England/268/96) (Influenza A virus A/England/268/96 (H7N7)); experiment: as above
[16] = biological target: purified recombinant HA protein of H7N9 (A/Shanghai/1/2013) (Influenza A virus A/Shanghai/1/2013 (H7N9))
[17] = biological target: purified recombinant HA protein of H7N9 (A/Anhui/1/2013) (Influenza A virus A/Anhui/1/2013 (H7N9))
[18] = biological target: purified recombinant HA protein of H5N1 (A/Vietnam/1203/04) (Influenza A virus A/Vietnam/1203/04 (H5N1))
[19] = biological target: HA of A/Shanghai/2/2013 (H7N9) virus (Influenza A virus A/Shanghai/2/2013 (H7N9)); experiment: cell-based or functional assay
[20] = biological target: HA of A/Solomon Islands/2006 (H1N1) virus (Influenza A virus A/Solomon Islands/3/2006 (H1N1)); experiment: cell-based or functional assay
[21] = biological target: HA of A/Beijing/32/92-R-H3N2 PR8 virus (Influenza A virus A/Beijing/32/92 (H3N2)); experiment: cell-based or functional assay
[22] = biological target: HA of A/Anhui/1/2013 (H7N9) virus (Influenza A virus A/Anhui/1/2013 (H7N9)); experiment: cell-based or functional assay
[23] = biological target: HA of A/PuertoRico/8/34 (H1N1) virus (Influenza A virus A/PuertoRico/8/34 (H1N1)) (UniProt P03452); experiment: cell-based or functional assay
[24] = biological target: HA of A/Ohio/83 (H1N1) virus (Influenza A virus A/Ohio/83 (H1N1)); experiment: cell-based or functional assay
[25] = biological target: HA of A/Texas/05/2009 (H1N1) virus (Influenza A virus A/Texas/05/2009 (H1N1)); experiment: cell-based or functional assay
[26] = biological target: HA of A/Sydney/5/97 (H3N2) virus (Influenza A virus A/Sydney/5/97 (H3N2)); experiment: cell-based or functional assay
[27] = biological target: HA of A/Ohio/07/2009 (H1N1) virus (Influenza A virus A/Ohio/07/2009 (H1N1)); experiment: cell-based or functional assay
[28] = biological target: HA of A/ck/HK/G9/97 (H9N2) virus (Influenza A virus A/ck/HK/G9/97 (H9N2)); experiment: cell-based or functional assay
[29] = biological target: HA of Anhui/1/05 (H5N1) virus (Influenza A virus A/Anhui/1/05 (H5N1)); experiment: cell-based or functional assay
[30] = biological target: HA of A/Perth/16/09 (H3N2) virus (Influenza A virus A/Perth/16/09 (H3N2)); experiment: cell-based or functional assay
[31] = biological target: HA of A/Ann Arbor/6/60 ca (H2N2) virus (Influenza A virus A/Ann Arbor/6/60 ca (H2N2)); experiment: cell-based or functional assay

CT149 (antibody), sequence (VH): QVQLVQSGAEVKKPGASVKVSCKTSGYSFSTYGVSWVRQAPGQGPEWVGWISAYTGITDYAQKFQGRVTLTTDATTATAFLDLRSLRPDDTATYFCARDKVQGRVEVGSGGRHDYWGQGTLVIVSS
CT149 (antibody), sequence (VL): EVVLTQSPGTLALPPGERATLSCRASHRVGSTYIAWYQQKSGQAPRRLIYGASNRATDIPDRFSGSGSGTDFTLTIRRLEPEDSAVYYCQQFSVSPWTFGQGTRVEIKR

In the case of CT149 (antibody), the Kd [1] is reported as 4.41 nM, the Kd [2] is reported as 1.81 nM and the Kd [3] is reported as 88.6 nM. The Kd [4] was 51.3 nM, the Kd [5] was 33.8 nM and the Kd [6] was 0.0456 nM. For the same substance, the Kd [7] was 50.9 nM and 51.7 nM, the koff [7] was 0.0379 s⁻¹ and 0.0387 s⁻¹ and the kon [7] was 746000 M⁻¹ s⁻¹ and 747000 M⁻¹ s⁻¹. The Kd [8] was 33.6 nM and 34.1 nM, the koff [8] was 0.0558 s⁻¹ and 0.0562 s⁻¹ and the kon [8] was 1.66e+06 M⁻¹ s⁻¹ and 1.65e+06 M⁻¹ s⁻¹. For the same substance, the Kd [9] was 0.142 nM and 0.155 nM, the koff [9] was 0.0028 s⁻¹ and 0.00285 s⁻¹ and the kon [9] was 1.97e+07 M⁻¹ s⁻¹ and 1.83e+07 M⁻¹ s⁻¹. For the same substance, the Kd [10] was 2.96 nM and 2.93 nM, the koff [10] was 0.00391 s⁻¹ and 0.00386 s⁻¹ and the kon [10] was 1.32e+06 M⁻¹ s⁻¹. For the same substance, the Kd [11] was 1.77 nM and 1.85 nM, the koff [11] was 0.000316 s⁻¹ and 0.000319 s⁻¹ and the kon [11] was 179000 M⁻¹ s⁻¹ and 173000 M⁻¹ s⁻¹. The Kd [12] was 0.0502 nM and 0.0411 nM, the koff [12] was 1.47e-05 s⁻¹ and 1.17e-05 s⁻¹ and the kon [12] was 292000 M⁻¹ s⁻¹ and 285000 M⁻¹ s⁻¹. The Kd [13] was 0.165 nM and 0.201 nM, the koff [13] was 0.00326 s⁻¹ and 0.00316 s⁻¹ and the kon [13] was 1.98e+07 M⁻¹ s⁻¹ and 1.57e+07 M⁻¹ s⁻¹. The Kd [14] was 86 nM and 91.3 nM, the koff [14] was 0.00723 s⁻¹ and 0.00745 s⁻¹ and the kon [14] was 84100 M⁻¹ s⁻¹ and 81600 M⁻¹ s⁻¹. For the same substance, the Kd [15] was 4.4 nM and 4.43 nM, the koff [15] was 0.00176 s⁻¹ and 0.0018 s⁻¹ and the kon [15] was 401000 M⁻¹ s⁻¹ and 406000 M⁻¹ s⁻¹. The Kd [16] was 0.149 nM, the Kd [17] was 0.183 nM and the Kd [18] was 2.94 nM.

Substance CT-P27 has an EC50, microneutralization test (Contract Lab A) [19] of 3.55 µg/mL, an EC50, microneutralization test (Contract Lab B) [19] of 13.1 µg/mL and an EC50, microneutralization test [20] of 0.27 µg/mL. It also gave an EC50, microneutralization test [21] of 3.1 µg/mL, an EC50, microneutralization test (Contract Lab A) [22] of 2.38 µg/mL and an EC50, microneutralization test [23] of 0.67 µg/mL. For the same substance, the EC50, microneutralization test [24] was 0.73 µg/mL, the EC50, microneutralization test [25] was 2.05 µg/mL and the EC50, microneutralization test [26] was 6.53 µg/mL. It also gave an EC50, microneutralization test [27] of 0.29 µg/mL, an EC50, microneutralization test [28] of 5.09 µg/mL and an EC50, microneutralization test [29] of 8.02 µg/mL. The EC50, microneutralization test [30] was 3.99 µg/mL and the EC50, microneutralization test [31] was 12.7 µg/mL.
